Results as given in patent US7399833 (dated 2008).
Where “and” joins values, the source holds several entries; their conditions need not be identical. Equal entries are not always repeated. One block for each molecule: values may come before it.

Assays:
[1] = biological target: full length human Mpl receptor on 32D-MPL cells (human) (UniProt P40238); test: cell-based or functional assay
[2] = biological target: T1, Mpl-X (the soluble extra-cellular domain of the Mpl receptor) (human, UniProt P40238 26-491, coupled to CNBr activated Sepharose resin); test: Mpl-receptor affinity chromatography
T1 construct: extracellular domain; also called hu-MPL-X
T1 sequence (looked up): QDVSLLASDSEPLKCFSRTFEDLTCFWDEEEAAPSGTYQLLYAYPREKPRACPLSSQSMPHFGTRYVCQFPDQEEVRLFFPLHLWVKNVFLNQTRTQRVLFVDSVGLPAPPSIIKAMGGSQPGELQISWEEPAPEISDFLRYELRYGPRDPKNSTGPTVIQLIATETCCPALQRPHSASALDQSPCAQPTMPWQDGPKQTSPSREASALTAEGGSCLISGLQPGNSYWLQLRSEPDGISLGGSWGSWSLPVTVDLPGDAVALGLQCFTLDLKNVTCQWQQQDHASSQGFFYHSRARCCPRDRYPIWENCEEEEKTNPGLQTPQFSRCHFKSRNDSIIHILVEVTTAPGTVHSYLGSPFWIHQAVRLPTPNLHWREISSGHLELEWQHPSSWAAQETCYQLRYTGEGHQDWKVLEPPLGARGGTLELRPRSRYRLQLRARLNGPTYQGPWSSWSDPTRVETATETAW

In Vitro Activity (units/ml), 32D-MPL cell proliferation [1]: 636 units/ml | Specific Activity (units/ng), 32D-MPL cell proliferation / MGDF ELISA [1]: 344 units/ng
Molecule: [Asn25] MGDF 1-174 (ligand)

In Vitro Activity (units/ml), 32D-MPL cell proliferation [1]: 1970 units/ml | Specific Activity (units/ng), 32D-MPL cell proliferation / MGDF ELISA [1]: 188 units/ng
Molecule: [Asn92] MGDF 1-174 (ligand)

In Vitro Activity (units/ml), 32D-MPL cell proliferation [1]: < 10 units/ml | Specific Activity (units/ng), 32D-MPL cell proliferation / MGDF ELISA [1]: < 22 units/ng
Molecule: [Asn86] MGDF 1-174 (ligand)

In Vitro Activity (units/ml), 32D-MPL cell proliferation [1]: 18000 units/ml | Specific Activity (units/ng), 32D-MPL cell proliferation / MGDF ELISA [1]: 269 units/ng
Molecule: [Asn53, Thr55] MGDF 1-174 (ligand)

In Vitro Activity (units/ml), 32D-MPL cell proliferation [1]: 8830 units/ml | Specific Activity (units/ng), 32D-MPL cell proliferation / MGDF ELISA [1]: 232 units/ng
Molecule: [Asn30, Thr32] MGDF 1-174 (ligand)

binding result [2]: binds
B1: CHO-derived MGDF 1-153 (ligand)
chain: SPAPPACDLRVLSKLLRDSHVLHSRLSQCPEVHPLPTPVLLPAVDFSLGEWKTQMEETKAQDILGAVTLLLEGVMAARGQLGPTCLSSLLGQLSGQVRLLLGALQSLLGTQLPPQGRTTAHKDPNAIFLSFQHLLRGKVRFLMLVGGSTLCVR
modifications: CHO-expressed material carries O-linked carbohydrate, which the letters do not show.
notes: see the note on m1; also called r-HuMGDF 1-153 (CHO)

binding result [2]: binds
B2: CHO-derived MGDF 1-163 (ligand)
chain: SPAPPACDLRVLSKLLRDSHVLHSRLSQCPEVHPLPTPVLLPAVDFSLGEWKTQMEETKAQDILGAVTLLLEGVMAARGQLGPTCLSSLLGQLSGQVRLLLGALQSLLGTQLPPQGRTTAHKDPNAIFLSFQHLLRGKVRFLMLVGGSTLCVRRAPPTTAVPS
modifications: CHO-expressed material carries O-linked carbohydrate, which the letters do not show.
notes: see the note on m1; also called r-HuMGDF 1-163 (CHO)

Further lines, the molecule ahead of its results:

Molecule: [Asn38, Thr40] MGDF 1-174 (ligand)
In Vitro Activity (units/ml), 32D-MPL cell proliferation [1]: < 10 units/ml | Specific Activity (units/ng), 32D-MPL cell proliferation / MGDF ELISA [1]: < 8 units/ng

Molecule: [Asn30, Thr32, Asn120, Thr122] MGDF 1-174 (ligand)
In Vitro Activity (units/ml), 32D-MPL cell proliferation [1]: 6420 units/ml | Specific Activity (units/ng), 32D-MPL cell proliferation / MGDF ELISA [1]: 247 units/ng

Molecule: [Ser36, Asn38, Thr40] MGDF 1-174 (ligand)
In Vitro Activity (units/ml), 32D-MPL cell proliferation [1]: < 10 units/ml | Specific Activity (units/ng), 32D-MPL cell proliferation / MGDF ELISA [1]: < 8 units/ng

Molecule: [Asn82, Ala83] MGDF 1-174 (ligand)
In Vitro Activity (units/ml), 32D-MPL cell proliferation [1]: 2660 units/ml and 3080 units/ml | Specific Activity (units/ng), 32D-MPL cell proliferation / MGDF ELISA [1]: 443 units/ng and 655 units/ng

Molecule: [Asn120, Thr122] MGDF 1-174 (ligand)
In Vitro Activity (units/ml), 32D-MPL cell proliferation [1]: 5940 units/ml and 9690 units/ml | Specific Activity (units/ng), 32D-MPL cell proliferation / MGDF ELISA [1]: 291 units/ng and 288 units/ng

Molecule: [Asn58, Thr60] MGDF 1-174 (ligand)
In Vitro Activity (units/ml), 32D-MPL cell proliferation [1]: 4850 units/ml | Specific Activity (units/ng), 32D-MPL cell proliferation / MGDF ELISA [1]: 271 units/ng
